Measured values from US20230071765.

B1: ORP100S (fully monocysteinic human thioredoxin-1, reduced form) (protein)
chain: VKQIESKTAFQEALDAAGDKLVVVDFSATWCGPSKMIKPFFHSLSEKYSNVIFLEVDVDDSQDVASESEVKSMPTFQFFKKGQKVGEFSGANKEKLEATINELV
B2: ORP-100 (C35S monocysteinic active site thioredoxin) (protein)
chain: VKQIESKTAFQEALDAAGDKLVVVDFSATWCGPSKMIKPFFHSLSEKYSNVIFLEVDVDDCQDVASECEVKCMPTFQFFKKGQKVGEFSGANKEKLEATINELV

Molecular target: human insulin (disulfide-bonded heterodimer), P01308
Sequence (P01308 whole entry, looked up, one chain of several): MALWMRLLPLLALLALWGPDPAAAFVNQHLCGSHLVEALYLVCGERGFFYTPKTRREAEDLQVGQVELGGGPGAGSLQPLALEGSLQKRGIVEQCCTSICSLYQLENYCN

| Protein | disulfide reduction activity by RP-HPLC (main HIC fraction after drying and reconstitution in saline) | conversion of insulin heterodimer peak (RP-HPLC insulin reduction, 0.025 mM ORP-100, pH 6, 60 min) |
| --- | --- | --- |
| B1 | the main fraction showed comparable disulfide reduction activity by DTNB and RP-HPLC to thioredoxin compositions purified without removing the red fraction | – |
| B2 | – | even at acidic pH 6 ORP-100 is able to markedly reduce the insulin heterodimer peak, and at 1/500 the concentration of NAC |
